In patent US20190256585A1 (IMMUNEMED, published 2019):

B1: humanized virus suppressing factor wild-type (hzVSF_wt) (antibody, V domains shown)
VH: EVQLVQSGAEVKKPGASVKVSCKASGYTFTGYNMNWVRQAPGKGLEWMGNIDPYYGSTTYAQKFQGRVTMTVDKSISTAYMELSRLRSDDTAVYYCARETGTRAMDYWGQGTLVTVSS
VL: DIQMTQSPSSLSASVGDRVTITCRASENIYSNLAWYQQKPGKAPKLLIYVATNLADGVPSRFSGSGSGTDFTLTISSLQPEDFATYYCQHFYGSPRTFGGGTKVEIK
notes: also called hzVSF wild-type
B2: hzVSF_var13 (antibody, V domains shown)
VH: EVQLVQSGAEVKKPGASVKVSCKASGYTFTGYNMNWVRQAPGKGLEWMGNIDPYYGSDTYAQKFQGRVTMTVDKSISTAYMELSRLRSDDTAVYYCARETGTRAMDYWGQGTLVTVSS
VL: DIQMTQSPSSLSASVGDRVTITCRASENIYSNLAWYQQKPGKAPKLLIYVADNLADGVPSRFSGSGSGTDFTLTISSLQPEDFATYYCQHFYGSPRTFGGGTKVEIK
notes: constant regions not tied to this variant; also called hzVSF v13
B3: mouse virus suppressing factor (mVSF) (antibody, V domains shown)
VH: EIQLQQSGAELVKPGASVKISCKASGYSFTGYNMNWVKQSHGKSLEWIGNIDPYYGSTTYNQKFKGKATLTVDKSSSTAYMQLNSLTSEDSAVYYCARETGTRAMDYWGQGTSVTVSS
VL: DIQMTQSPASLSASVGETVTMTCRASENIYSNLAWYQQKQGKSPQLLVYVATNLADGVPSRFSGSGSGTQFSLKINSLQPEDFGSYYCQHFYGSPRTFGGGTKLEIKR
notes: also called mouse VSF
B4: hzVSF_var11 (antibody, V domains shown)
VH: EVQLVQSGAEVKKPGASVKVSCKASGYTFTGYNMNWVRQAPGKGLEWMGNIDPYYGSDTYAQKFQGRVTMTVDTSASTAYMELSRLRSDDTAVYYCARETGTRAMDYWGQGTLVTVSS
VL: DIQMTQSPSSLSASVGDRVTITCRASENIYSNLAWYQQKPGKAPKLLIYVADNRGDGVPSRFSGSGSGTDFTLTISSLQPEDFATYYCQHFYGTPRTFGGGTKVEIK
notes: Humanized IgG variant of hzVSF; constant regions not tied to this variant
B5: hzVSF_var3 (antibody, V domains shown)
VH: EVQLVQSGAEVKKPGASVKVSCKASGYTFTGYNMNWVRQAPGKGLEWMGNIDPYYGSTTYAQKFQGRVTMTVDKSISTAYMELSRLRSDDTAVYYCARETGTRAMDYWGQGTLVTVSS
VL: DIQMTQSPSSLSASVGDRVTITCRASENIYSNLAWYQQKPGKAPKLLIYVADNRGDGVPSRFSGSGSGTDFTLTISSLQPEDFATYYCQHFYGSPRTFGGGTKVEIK
notes: as for B4
B6: hzVSF_var12 (antibody, V domains shown)
VH: EVQLVQSGAEVKKPGASVKVSCKASGYTFTGYNMNWVRQAPGKGLEWMGNIDPYYGSDTYAQKFQGRVTMTVDTSASTAYMELSRLRSDDTAVYYCARETGNRAMDYWGQGTLVTVSS
VL: DIQMTQSPSSLSASVGDRVTITCRASENIYSNLAWYQQKPGKAPKLLIYVADNRGDGVPSRFSGSGSGTDFTLTISSLQPEDFATYYCQHFYGTPRTFGGGTKVEIK
notes: as for B4
B7: hzVSF_var5 (antibody, V domains shown)
VH: EVQLVQSGAEVKKPGASVKVSCKASGYTFTGYNMNWVRQAPGKGLEWMGNIDPYYGSDTYAQKFQGRVTMTVDKSISTAYMELSRLRSDDTAVYYCARETGTRAMDYWGQGTLVTVSS
VL: DIQMTQSPSSLSASVGDRVTITCRASENIYSNLAWYQQKPGKAPKLLIYVATNLADGVPSRFSGSGSGTDFTLTISSLQPEDFATYYCQHFYGSPRTFGGGTKVEIK
notes: as for B4
B8: hzVSF_var8 (antibody, V domains shown)
VH: EVQLVQSGAEVKKPGASVKVSCKASGYTFTGYNMNWVRQAPGKGLEWMGNIDPYYGSDTYAQKFQGRVTMTVDTSASTAYMELSRLRSDDTAVYYCARETGNRAMDYWGQGTLVTVSS
VL: DIQMTQSPSSLSASVGDRVTITCRASENIYSNLAWYQQKPGKAPKLLIYVATNLADGVPSRFSGSGSGTDFTLTISSLQPEDFATYYCQHFYGSPRTFGGGTKVEIK
notes: as for B4
B9: hzVSF_var6 (antibody, V domains shown)
VH: EVQLVQSGAEVKKPGASVKVSCKASGYTFTGYNMNWVRQAPGKGLEWMGNIDPYYGSTTYAQKFQGRVTMTVDTSASTAYMELSRLRSDDTAVYYCARETGTRAMDYWGQGTLVTVSS
VL: DIQMTQSPSSLSASVGDRVTITCRASENIYSNLAWYQQKPGKAPKLLIYVATNLADGVPSRFSGSGSGTDFTLTISSLQPEDFATYYCQHFYGSPRTFGGGTKVEIK
notes: as for B4
B10: hzVSF_var7 (antibody, V domains shown)
VH: EVQLVQSGAEVKKPGASVKVSCKASGYTFTGYNMNWVRQAPGKGLEWMGNIDPYYGSDTYAQKFQGRVTMTVDTSASTAYMELSRLRSDDTAVYYCARETGTRAMDYWGQGTLVTVSS
VL: DIQMTQSPSSLSASVGDRVTITCRASENIYSNLAWYQQKPGKAPKLLIYVATNLADGVPSRFSGSGSGTDFTLTISSLQPEDFATYYCQHFYGSPRTFGGGTKVEIK
notes: as for B4
B11: hzVSF_var10 (antibody, V domains shown)
VH: EVQLVQSGAEVKKPGASVKVSCKASGYTFTGYNMNWVRQAPGKGLEWMGNIDPYYGSDTYAQKFQGRVTMTVDTSASTAYMELSRLRSDDTAVYYCARETGNRAMDYWGQGTLVTVSS
VL: DIQMTQSPSSLSASVGDRVTITCRASENIYSNLAWYQQKPGKAPKLLIYVADNRGDGVPSRFSGSGSGTDFTLTISSLQPEDFATYYCQHFYGSPRTFGGGTKVEIK
notes: as for B4
B12: hzVSF_var1 (antibody, V domains shown)
VH: EVQLVQSGAEVKKPGASVKVSCKASGYTFTGYNMNWVRQAPGKGLEWMGNIDPYYGSTTYAQKFQGRVTMTVDKSISTAYMELSRLRSDDTAVYYCARETGTRAMDYWGQGTLVTVSS
VL: DIQMTQSPSSLSASVGDRVTITCRASENIYSNLAWYQQKPGKAPKLLIYVADNLADGVPSRFSGSGSGTDFTLTISSLQPEDFATYYCQHFYGSPRTFGGGTKVEIK
notes: Humanized IgG variant of hzVSF; constant regions not tied to this variant; also called hzVSF_1
B13: hzVSF_var9 (antibody, V domains shown)
VH: EVQLVQSGAEVKKPGASVKVSCKASGYTFTGYNMNWVRQAPGKGLEWMGNIDPYYGSDTYAQKFQGRVTMTVDTSASTAYMELSRLRSDDTAVYYCARETGTRAMDYWGQGTLVTVSS
VL: DIQMTQSPSSLSASVGDRVTITCRASENIYSNLAWYQQKPGKAPKLLIYVADNRGDGVPSRFSGSGSGTDFTLTISSLQPEDFATYYCQHFYGSPRTFGGGTKVEIK
notes: as for B4
B14: hzVSF_var4 (antibody, V domains shown)
VH: EVQLVQSGAEVKKPGASVKVSCKASGYTFTGYNMNWVRQAPGKGLEWMGNIDPYYGSTTYAQKFQGRVTMTVDKSISTAYMELSRLRSDDTAVYYCARETGTRAMDYWGQGTLVTVSS
VL: DIQMTQSPSSLSASVGDRVTITCRASENIYSNLAWYQQKPGKAPKLLIYVADNRGDGVPSRFSGSGSGTDFTLTISSLQPEDFATYYCQHFYGTPRTFGGGTKVEIK
notes: as for B4
B15: hzVSF_var2 (antibody, V domains shown)
VH: EVQLVQSGAEVKKPGASVKVSCKASGYTFTGYNMNWVRQAPGKGLEWMGNIDPYYGSTTYAQKFQGRVTMTVDKSISTAYMELSRLRSDDTAVYYCARETGTRAMDYWGQGTLVTVSS
VL: DIQMTQSPSSLSASVGDRVTITCRASENIYSNLAWYQQKPGKAPKLLIYVADNLGDGVPSRFSGSGSGTDFTLTISSLQPEDFATYYCQHFYGSPRTFGGGTKVEIK
notes: as for B4

The binders below were run against T1, VSF receptors on L929 cells infected with EMC-D virus (mouse, UniProt P20152 2-466) (assay: depletion of ligand from the culture supernatant of EMC-D-infected L929 cells (added minus recovered after 1 hour)).
T1 construct: also called receptors of hzVSF; VR
T1 sequence (P20152 2-466 limits assumed, form in doubt): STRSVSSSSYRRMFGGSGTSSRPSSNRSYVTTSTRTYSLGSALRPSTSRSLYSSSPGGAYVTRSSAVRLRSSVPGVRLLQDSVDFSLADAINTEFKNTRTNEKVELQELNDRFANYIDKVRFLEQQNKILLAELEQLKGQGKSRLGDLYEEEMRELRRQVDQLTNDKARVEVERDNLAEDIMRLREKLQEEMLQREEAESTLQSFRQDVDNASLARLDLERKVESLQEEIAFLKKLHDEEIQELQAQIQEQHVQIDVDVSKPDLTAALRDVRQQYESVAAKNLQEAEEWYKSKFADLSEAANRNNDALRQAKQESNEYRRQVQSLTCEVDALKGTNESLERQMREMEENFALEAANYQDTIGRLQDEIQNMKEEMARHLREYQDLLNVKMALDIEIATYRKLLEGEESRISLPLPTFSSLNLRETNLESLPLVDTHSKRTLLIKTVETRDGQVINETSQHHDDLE
Description: L929 cells were seeded at the amount of 6×10⁵ cells and infected with 2 MOI of EMC-D virus for 0, 2, 6, and 10 hours, respectively. […] The difference between the amount of each ligand added and the amount of the collected ligand after reaction is the amount of the ligand bound to the receptors, and based on the result, the affinity constant (Ka) and the dissociation constant (Kd) were calculated (Table 11).
Work on B1 yielded a Ka of 8.2e+09 M⁻¹ and a Kd of 0.12 nM. Binder B2 has a Ka of 1.7e+10 M⁻¹ and a Kd of 0.059 nM. B3 showed a Ka of 2.1e+10 M⁻¹ and a Kd of 0.047 nM.

Each binder was assayed against isolated peptide of SEQ ID NO: 1 (vimentin amino acid positions 142 to 294) (assay: method not described (refers to FIGS. 54 to 58)).
B1: binds. B4: binds. B5: binds. B6: binds. B7: binds. B8: binds. B9: binds. B10: binds. B11: binds. B12: binds. B13: binds. B2: binds. B14: binds. B15: binds.
